T1: Sgf73 (S. cerevisiae, UniProt P53165 1-657)
T1 sequence: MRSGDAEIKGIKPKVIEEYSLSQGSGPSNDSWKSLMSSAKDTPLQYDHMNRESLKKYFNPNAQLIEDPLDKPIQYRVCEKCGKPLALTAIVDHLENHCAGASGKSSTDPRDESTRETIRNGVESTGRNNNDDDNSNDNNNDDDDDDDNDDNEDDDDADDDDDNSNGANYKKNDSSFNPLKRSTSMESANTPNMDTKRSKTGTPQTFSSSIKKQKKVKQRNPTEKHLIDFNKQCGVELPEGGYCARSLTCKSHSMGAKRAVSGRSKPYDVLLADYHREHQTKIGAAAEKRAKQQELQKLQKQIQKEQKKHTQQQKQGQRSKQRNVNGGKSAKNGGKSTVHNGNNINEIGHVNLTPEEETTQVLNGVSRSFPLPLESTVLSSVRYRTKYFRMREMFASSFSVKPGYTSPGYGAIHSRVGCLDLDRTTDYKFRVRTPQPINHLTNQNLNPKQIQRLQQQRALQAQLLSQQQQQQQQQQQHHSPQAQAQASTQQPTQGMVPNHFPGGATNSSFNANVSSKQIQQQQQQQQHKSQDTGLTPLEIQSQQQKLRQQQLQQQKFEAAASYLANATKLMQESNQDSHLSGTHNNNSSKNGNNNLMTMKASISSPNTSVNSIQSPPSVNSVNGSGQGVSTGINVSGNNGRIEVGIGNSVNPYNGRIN

T2: Spt7 (S. cerevisiae, UniProt P35177 1-1332)
T2 sequence: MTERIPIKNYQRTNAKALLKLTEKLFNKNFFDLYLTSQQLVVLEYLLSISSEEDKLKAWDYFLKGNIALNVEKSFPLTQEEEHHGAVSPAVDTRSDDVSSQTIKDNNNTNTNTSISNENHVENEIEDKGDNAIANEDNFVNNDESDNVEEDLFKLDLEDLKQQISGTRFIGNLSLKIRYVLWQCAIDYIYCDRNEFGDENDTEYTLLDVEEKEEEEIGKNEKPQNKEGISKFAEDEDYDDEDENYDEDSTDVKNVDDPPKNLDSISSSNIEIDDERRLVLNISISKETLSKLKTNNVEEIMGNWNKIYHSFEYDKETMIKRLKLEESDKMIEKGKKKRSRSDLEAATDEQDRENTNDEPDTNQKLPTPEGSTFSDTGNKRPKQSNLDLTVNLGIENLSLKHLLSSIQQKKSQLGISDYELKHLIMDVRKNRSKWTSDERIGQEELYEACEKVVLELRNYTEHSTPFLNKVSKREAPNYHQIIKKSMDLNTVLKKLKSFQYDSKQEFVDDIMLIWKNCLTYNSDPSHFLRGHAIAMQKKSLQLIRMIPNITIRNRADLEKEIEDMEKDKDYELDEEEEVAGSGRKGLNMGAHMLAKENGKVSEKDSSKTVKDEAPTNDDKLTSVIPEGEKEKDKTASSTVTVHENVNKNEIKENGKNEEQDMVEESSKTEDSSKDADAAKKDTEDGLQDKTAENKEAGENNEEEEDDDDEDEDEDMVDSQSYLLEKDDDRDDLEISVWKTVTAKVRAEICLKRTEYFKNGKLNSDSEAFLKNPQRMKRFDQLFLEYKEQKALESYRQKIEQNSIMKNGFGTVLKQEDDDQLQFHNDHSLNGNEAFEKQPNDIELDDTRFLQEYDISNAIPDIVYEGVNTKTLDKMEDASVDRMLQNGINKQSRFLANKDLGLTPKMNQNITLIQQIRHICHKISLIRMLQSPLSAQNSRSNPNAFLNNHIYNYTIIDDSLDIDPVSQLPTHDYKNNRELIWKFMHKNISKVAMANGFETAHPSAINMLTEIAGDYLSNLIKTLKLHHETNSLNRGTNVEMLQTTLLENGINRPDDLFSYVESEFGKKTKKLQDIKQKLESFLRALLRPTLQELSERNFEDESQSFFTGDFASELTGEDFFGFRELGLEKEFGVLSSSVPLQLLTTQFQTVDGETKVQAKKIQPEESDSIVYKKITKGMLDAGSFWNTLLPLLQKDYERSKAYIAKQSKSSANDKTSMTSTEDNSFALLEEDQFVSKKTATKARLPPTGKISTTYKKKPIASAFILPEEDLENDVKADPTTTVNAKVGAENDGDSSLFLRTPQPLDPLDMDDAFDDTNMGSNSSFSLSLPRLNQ

B1: Taf6 (natural protein)
chain: MSTQQQSYTIWSPQDTVKDVAESLGLENINDDVLKALAMDVEYRILEIIEQAVKFKRHSKRDVLTTDDVSKALRVLNVEPLYGYYDGSEVNKAVSFSKVNTSGGQSVYYLDEEEVDFDRLINEPLPQVPRLPTFTTHWLAVEGVQPAIIQNPNLNDIRVSQPPFIRGAIVTALNDNSLQTPVTSTTASASVTDTGASQHLSNVKPGQNTEVKPLVKHVLSKELQIYFNKVISTLTAKSQADEAAQHMKQAALTSLRTDSGLHQLVPYFIQFIAEQITQNLSDLQLLTTILEMIYSLLSNTSIFLDPYIHSLMPSILTLLLAKKLGGSPKDDSPQEIHEFLERTNALRDFAASLLDYVLKKFPQAYKSLKPRVTRTLLKTFLDINRVFGTYYGCLKGVSVLEGESIRFFLGNLNNWARLVFNESGITLDNIEEHLNDDSNPTRTKFTKEETQILVDTVISALLVLKKDLPDLYEGKGEKVTDEDKEKLLERCGVTIGFHILKRDDAKELISAIFFGE
B2: Taf9 (natural protein)
chain: MNGGGKNVLNKNSVGSVSEVGPDSTQEETPRDVRLLHLLLASQSIHQYEDQVPLQLMDFAHRYTQGVLKDALVYNDYAGSGNSAGSGLGVEDIRLAIAARTQYQFKPTAPKELMLQLAAERNKKALPQVMGTWGVRLPPEKYCLTAKEWDLEDPKSM
B3: Taf10 (natural protein)
chain: MDFEEDYDAEFDDNQEGQLETPFPSVAGADDGDNDNDDSVAENMKKKQKREAVVDDGSENAFGIPEFTRKDKTLEEILEMMDSTPPIIPDAVIDYYLTKNGFNVADVRVKRLLALATQKFVSDIAKDAYEYSRIRSSVAVSNANNSQARARQLLQGQQQPGVQQISQQQHQQNEKTTASKVVLTVNDLSSAVAEYGLNIGRPDFYR
B4: Taf5 (natural protein)
chain: MSQKQSTNQNQNGTHQPQPVKNQRTNNAAGANSGQQPQQQSQGQSQQQGRSNGPFSASDLNRIVLEYLNKKGYHRTEAMLRAESGRTLTPQNKQSPANTKTGKFPEQSSIPPNPGKTAKPISNPTNLSSKRDAEGGIVSSGRLEGLNAPENYIRAYSMLKNWVDSSLEIYKPELSYIMYPIFIYLFLNLVAKNPVYARRFFDRFSPDFKDFHGSEINRLFSVNSIDHIKENEVASAFQSHKYRITMSKTTLNLLLYFLNENESIGGSLIISVINQHLDPNIVESVTAREKLADGIKVLSDSENGNGKQNLEMNSVPVKLGPFPKDEEFVKEIETELKIKDDQEKQLNQQTAGDNYSGANNRTLLQEYKAMNNEKFKDNTGDDDKDKIKDKIAKDEEKKESELKVDGEKKDSNLSSPARDILPLPPKTALDLKLEIQKVKESRDAIKLDNLQLALPSVCMYTFQNTNKDMSCLDFSDDCRIAAAGFQDSYIKIWSLDGSSLNNPNIALNNNDKDEDPTCKTLVGHSGTVYSTSFSPDNKYLLSGSEDKTVRLWSMDTHTALVSYKGHNHPVWDVSFSPLGHYFATASHDQTARLWSCDHIYPLRIFAGHLNDVDCVSFHPNGCYVFTGSSDKTCRMWDVSTGDSVRLFLGHTAPVISIAVCPDGRWLSTGSEDGIINVWDIGTGKRLKQMRGHGKNAIYSLSYSKEGNVLISGGADHTVRVWDLKKATTEPSAEPDEPFIGYLGDVTASINQDIKEYGRRRTVIPTSDLVASFYTKKTPVFKVKFSRSNLALAGGAFRP
B5: Spt20 (natural protein)
chain: MSANSPTGNDPHVFGIPVNATPSNMGSPGSPVNVPPPMNPAVANVNHPVMRTNSNSNANEGTRTLTREQIQQLQQRQRLLLQQRLLEQQRKQQALQNYEAQFYQMLMTLNKRPKRLYNFVEDADSILKKYEQYLHSFEFHIYENNYKICAPANSRLQQQQKQPELTSDGLILTKNNETLKEFLEYVARGRIPDAIMEVLRDCNIQFYEGNLILQVYDHTNTVDVTPKENKPNLNSSSSPSNNNSTQDNSKIQQPSEPNSGVANTGANTANKKASFKRPRVYRTLLKPNDLTTYYDMMSYADNARFSDSIYQQFESEILTLTKRNLSLSVPLNPYEHRDMLEETAFSEPHWDSEKKSFIHEHRAESTREGTKGVVGHIEERDEFPQHSSNYEQLMLIMNERTTTITNSTFAVSLTKNAMEIASSSSNGVRGASSSTSNSASNTRNNSLANGNQVALAAAAAAAAVGSTMGNDNNQFSRLKFIEQWRINKEKRKQQALSANINPTPFNARISMTAPLTPQQQLLQRQQQALEQQQNGGAMKNANKRSGNNATSNNNNNNNNLDKPKVKRPRKNAKKSESGTPAPKKKRMTKKKQSASSTPSSTTMS

Experiment [1] concerns the target B4. The experiment in a line: cryo-EM structure.
For experiment [2], the target named is T1, Sgf73. Put plainly: cryo-EM structure.
Experiment [3] concerns the target T2, Spt7. Put plainly: cryo-EM structure.
Experiment [4] concerns the target B1. The experiment in a line: cryo-EM structure.
Experiment [5] deals with B4. The experiment in a line: affinity purification with mass spectrometry.
Experiment [6] concerns the target Tra1 (S. cerevisiae, UniProt P38811 1-3744). The experiment in a line: affinity purification with mass spectrometry.
In experiment [7] the target is T1, Sgf73. Put plainly: affinity purification with mass spectrometry.

Chain of Tra1 (P38811 whole entry): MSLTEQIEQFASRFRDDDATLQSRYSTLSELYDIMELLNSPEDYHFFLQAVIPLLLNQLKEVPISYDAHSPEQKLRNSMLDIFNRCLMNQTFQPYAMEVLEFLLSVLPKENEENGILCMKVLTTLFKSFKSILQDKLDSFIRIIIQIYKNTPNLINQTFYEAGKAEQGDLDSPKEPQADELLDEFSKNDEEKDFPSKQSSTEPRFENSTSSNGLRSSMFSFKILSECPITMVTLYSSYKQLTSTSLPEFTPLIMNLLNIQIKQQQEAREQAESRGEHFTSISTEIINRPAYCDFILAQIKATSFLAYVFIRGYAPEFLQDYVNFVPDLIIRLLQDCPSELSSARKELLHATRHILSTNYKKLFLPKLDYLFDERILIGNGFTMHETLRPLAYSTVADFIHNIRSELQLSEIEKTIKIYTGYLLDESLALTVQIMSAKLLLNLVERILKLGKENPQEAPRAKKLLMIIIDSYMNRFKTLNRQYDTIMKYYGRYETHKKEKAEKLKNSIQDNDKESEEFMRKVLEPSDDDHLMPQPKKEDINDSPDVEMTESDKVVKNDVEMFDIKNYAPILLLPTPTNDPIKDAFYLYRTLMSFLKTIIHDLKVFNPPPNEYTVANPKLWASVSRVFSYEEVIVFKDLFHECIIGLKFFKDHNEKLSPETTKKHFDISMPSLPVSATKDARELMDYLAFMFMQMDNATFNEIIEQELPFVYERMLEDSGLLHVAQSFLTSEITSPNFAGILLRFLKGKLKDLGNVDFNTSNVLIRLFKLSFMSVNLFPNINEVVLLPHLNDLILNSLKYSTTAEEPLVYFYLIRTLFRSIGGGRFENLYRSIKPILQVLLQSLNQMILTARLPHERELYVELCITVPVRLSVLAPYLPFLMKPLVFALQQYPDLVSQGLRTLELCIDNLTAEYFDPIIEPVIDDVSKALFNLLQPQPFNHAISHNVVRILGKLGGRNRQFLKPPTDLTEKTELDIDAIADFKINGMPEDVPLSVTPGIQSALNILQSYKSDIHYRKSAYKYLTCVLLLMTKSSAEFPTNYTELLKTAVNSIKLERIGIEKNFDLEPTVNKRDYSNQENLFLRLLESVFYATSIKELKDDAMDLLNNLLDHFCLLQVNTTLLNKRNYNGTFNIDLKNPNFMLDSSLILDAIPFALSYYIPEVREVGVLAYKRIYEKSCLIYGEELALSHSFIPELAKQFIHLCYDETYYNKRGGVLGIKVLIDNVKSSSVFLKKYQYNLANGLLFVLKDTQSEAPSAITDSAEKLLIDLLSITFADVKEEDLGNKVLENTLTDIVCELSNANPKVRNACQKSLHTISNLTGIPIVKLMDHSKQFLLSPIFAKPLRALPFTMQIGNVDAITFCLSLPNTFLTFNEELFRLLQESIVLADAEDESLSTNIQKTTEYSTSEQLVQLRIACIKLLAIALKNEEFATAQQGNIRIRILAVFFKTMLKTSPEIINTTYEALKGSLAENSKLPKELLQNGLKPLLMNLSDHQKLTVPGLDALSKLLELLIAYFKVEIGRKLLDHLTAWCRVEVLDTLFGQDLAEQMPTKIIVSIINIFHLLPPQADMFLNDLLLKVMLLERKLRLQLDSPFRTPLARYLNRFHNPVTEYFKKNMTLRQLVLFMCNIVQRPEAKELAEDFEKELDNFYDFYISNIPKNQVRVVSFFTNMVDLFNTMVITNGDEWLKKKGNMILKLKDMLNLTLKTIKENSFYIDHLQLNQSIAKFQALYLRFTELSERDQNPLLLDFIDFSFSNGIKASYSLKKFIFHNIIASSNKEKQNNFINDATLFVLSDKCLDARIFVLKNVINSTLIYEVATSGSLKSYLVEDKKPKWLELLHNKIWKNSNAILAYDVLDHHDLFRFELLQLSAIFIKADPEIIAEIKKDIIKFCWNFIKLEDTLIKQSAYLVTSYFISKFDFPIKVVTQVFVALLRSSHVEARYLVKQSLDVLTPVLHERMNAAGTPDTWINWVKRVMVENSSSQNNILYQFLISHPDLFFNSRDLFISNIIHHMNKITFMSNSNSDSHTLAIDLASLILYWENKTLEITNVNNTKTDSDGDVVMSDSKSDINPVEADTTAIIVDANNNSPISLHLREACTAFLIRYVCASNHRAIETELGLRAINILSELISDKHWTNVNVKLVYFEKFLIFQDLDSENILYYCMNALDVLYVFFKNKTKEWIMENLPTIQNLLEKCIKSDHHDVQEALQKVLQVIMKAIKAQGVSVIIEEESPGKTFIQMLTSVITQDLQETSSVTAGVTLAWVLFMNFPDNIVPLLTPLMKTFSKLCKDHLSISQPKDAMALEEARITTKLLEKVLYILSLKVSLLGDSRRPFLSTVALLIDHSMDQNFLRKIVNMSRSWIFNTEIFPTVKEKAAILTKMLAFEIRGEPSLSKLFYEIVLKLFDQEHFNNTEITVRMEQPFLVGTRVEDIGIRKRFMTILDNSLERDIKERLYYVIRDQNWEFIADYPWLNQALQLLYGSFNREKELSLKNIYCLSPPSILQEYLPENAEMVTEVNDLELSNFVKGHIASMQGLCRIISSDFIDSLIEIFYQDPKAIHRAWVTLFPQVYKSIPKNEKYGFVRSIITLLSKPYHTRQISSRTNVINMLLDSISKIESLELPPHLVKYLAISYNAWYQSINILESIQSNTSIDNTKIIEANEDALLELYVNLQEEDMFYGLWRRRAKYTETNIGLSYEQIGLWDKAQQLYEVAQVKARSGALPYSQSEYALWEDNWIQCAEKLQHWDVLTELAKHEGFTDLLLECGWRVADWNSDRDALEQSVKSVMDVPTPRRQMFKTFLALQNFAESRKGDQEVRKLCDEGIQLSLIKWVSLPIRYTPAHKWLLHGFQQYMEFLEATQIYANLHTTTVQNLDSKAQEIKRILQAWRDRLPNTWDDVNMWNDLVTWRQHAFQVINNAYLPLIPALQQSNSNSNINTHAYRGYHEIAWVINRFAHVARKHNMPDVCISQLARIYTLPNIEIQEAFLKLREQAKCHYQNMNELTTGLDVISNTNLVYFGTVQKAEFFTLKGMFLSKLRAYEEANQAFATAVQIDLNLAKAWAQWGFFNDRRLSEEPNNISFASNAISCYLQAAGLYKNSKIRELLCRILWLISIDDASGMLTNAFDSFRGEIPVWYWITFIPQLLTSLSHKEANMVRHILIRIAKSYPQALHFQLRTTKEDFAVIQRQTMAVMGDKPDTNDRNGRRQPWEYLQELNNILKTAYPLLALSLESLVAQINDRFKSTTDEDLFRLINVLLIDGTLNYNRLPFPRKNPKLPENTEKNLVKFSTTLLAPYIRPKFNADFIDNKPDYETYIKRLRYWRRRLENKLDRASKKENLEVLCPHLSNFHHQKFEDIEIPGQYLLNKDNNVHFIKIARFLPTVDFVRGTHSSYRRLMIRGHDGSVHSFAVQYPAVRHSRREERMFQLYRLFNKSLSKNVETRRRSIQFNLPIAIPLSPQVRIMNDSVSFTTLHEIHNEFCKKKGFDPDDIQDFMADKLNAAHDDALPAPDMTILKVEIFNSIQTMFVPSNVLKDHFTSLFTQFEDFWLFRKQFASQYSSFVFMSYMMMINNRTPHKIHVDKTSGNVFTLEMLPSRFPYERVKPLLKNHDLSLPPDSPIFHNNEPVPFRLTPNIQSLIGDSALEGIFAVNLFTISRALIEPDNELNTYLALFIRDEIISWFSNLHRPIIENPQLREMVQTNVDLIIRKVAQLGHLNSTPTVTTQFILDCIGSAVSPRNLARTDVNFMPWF

In the case of B1, the binding result in experiment [1], in experiment [2] and in experiment [3] was “binds” each time.
For B2, the binding result in experiment [1], in experiment [2] and in experiment [4] was “binds” throughout.
As for B3, the binding result in experiment [1] and in experiment [3] was “binds” throughout.
In the case of B4, the binding result in experiment [3] was “binds”.
In the case of B5, the binding result in experiment [5], in experiment [6] and in experiment [7] was “binds” in each case.

The values are drawn from publication PMC6994259 (Nature, 2020).
